Data reported in the domain aggregation screens of Martell et al. (2025).
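Also: 20 min heating vs room temperature control held 20 min.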

Test: soluble fraction after stress (log2 fold change); higher = more stays soluble; pooled small domains, quantitative proteomics
Conditions: stress: 75 degC
With “HMIPDAIDPDGRFKWRAGEAVVGFGRHAGEPLKKIAIENPEFLRWILKADFSTDVKKIASDALKGYFPEK” the “soluble fraction (log2)” value was -0.488.
In the case of “HMIPDLPAVGVNVHKERRRQQLSLDALAAGSGVSKAMLSQIESGKVNPTVATMWKIAHALGVDFELLLKGE”, the “soluble fraction (log2)” value was -0.982.
With “HMIPDPPALGSNLHRERRRQQLSLDALAAASGVSKAMLSQIEADKVNPTIATMWKIAHALNIDFETLLRGE” the “soluble fraction (log2)” value was -0.963.
For “HMIPENKRVLISLTYIYGIGKKISQDILEKANIDSSIKTSQLTDDDVARIRQLIENDYLVEGELRV”, the “soluble fraction (log2)” value was 0.0291.
For “HMIPLPEDVASMRERLALTPEKADELFGLEDGSFARYEHGEEKVPFVVFQLLWLLGKYPHLIGELR”, the “soluble fraction (log2)” value was -1.2.
In the case of “HMIPRGFSRYYILELLQKKPHTGKEIIDNAIKESGGRWNPSPGLIYPLLGRLLDENLIEETNDGKYK”, the “soluble fraction (log2)” value was -2.24.
In the case of “HMIPSLTITVNEHSRQITRGTSLYTLRDALYPDADVLVVNGHPADSDRHLEEGDAVVLIRRGA”, the “soluble fraction (log2)” value was -0.456.
In the case of “HMIQIQDIAFSEFLQELDKGNIVEVNIKGDLINGDLINGKKFKTVAPYDPNLVEKLSKQNVRINVEPIN”, the “soluble fraction (log2)” value was 0.157.
For “HMIQLKEHDVVRLRETIVENDEKIPAGTRGVVLSVYDGGRAFAVEVADDRAASAIITAFRDQLEVY”, the “soluble fraction (log2)” value was -0.467.
For “HMIQNTGMMESGDSIRGMALDAGFPLLMVVGYRGWTRKGNTPDSAAVYTEPFLNAFRLNYYLVEHDE”, the “soluble fraction (log2)” value was 0.3.
In the case of “HMIQVNKTQALIIEEMRDNPNITLLELQKTLSLGRTAIQNNVSSLRKRQIIKRVGSNKNGYWEVTDK”, the “soluble fraction (log2)” value was -1.89.
With “HMIRQETYLLVRKAVGALPVQMRKIIELAMQGKKNAEIAAQLSISEGTVHTLKKTAYKKLRDRLQE” the “soluble fraction (log2)” value was -3.12.
For “HMIRQGTKQALLIEMLQRPEGASITEIVEATSWQAHTARGAISGALKKKLGLPITSEKHPERGTVYKL”, the “soluble fraction (log2)” value was -0.862.
With “HMISAQEQALRNLKLSNGMTWKALAKALGITERSILSYVAAPGTKGYREMPAEVWHKLENISGH” the “soluble fraction (log2)” value was -0.0432.
In the case of “HMISDAEWTIMKALWQSEDKKMTLKEIAEAVADSGWSYTTVRTMVGRLVEKEAIEADESHPRNFRYSAA”, the “soluble fraction (log2)” value was -1.2.
For “HMISEGDIIKGTVIDVNEEEVILDLKYYAQGVIKAENLSNDPDFLAAGKISVGDEIEATVIKMDDGEGNIE”, the “soluble fraction (log2)” value was 0.529.
With “HMISESIPAKDALLRLLNTAYQTRTNAAGEFYFNDVPPGKYILQASVNDVEIIRENISINEN” the “soluble fraction (log2)” value was -0.377.
For “HMISEWDAAYSYAKQYYEENGHLFVPKKYVTSEGAALGKWIWEQRDSYLGLSSYKISDKKIEMLEDIGMFW”, the “soluble fraction (log2)” value was -4.03.
With “HMISINVIGEMISGSYGNTPFSRTYEKDIYEQMVKLSDDADQAQTVEEYNKILAEFSLLTTEDLK” the “soluble fraction (log2)” value was -0.546.
With “HMISKWGELVDLAVQLDIIQKSGSWFSMGDERIGQGANSVKDYLIANPDIAEKVEAEVRENLWKLN” the “soluble fraction (log2)” value was -0.625.
In the case of “HMISKYLRIESDILSAIREGRLKPGDKLPGQSEMRRIYNVSAITVRKAFTDLINDGYLVGVRGSGTYVAKR”, the “soluble fraction (log2)” value was -0.91.
For “HMISQATMEKMGLTNRERQLVDFIVRGASNQEISEKMFISINTVKIHVSNIFRKAGVRSRTELMDKYP”, the “soluble fraction (log2)” value was -3.26.
With “HMISSKDIINDEDGARLGKIADVEIDVATGKILSVHVYRSFKLLHLFGNKDVVQIPWNKIMKIGSDVVIVE” the “soluble fraction (log2)” value was 0.102.
With “HMISVENLSNREFEIFQLIGNGFSTKEMAKKLNLSIYTVESHKKNIKEKLKLKNSSDLSKYAIQWVIMQN” the “soluble fraction (log2)” value was -2.94.
In the case of “HMITANNYFNEVERIGVETLPETLRKGHDLVVRSTNSGTNWSNYQNNESIRKVIDLYLQKLNEYVSTST”, the “soluble fraction (log2)” value was 0.294.
With “HMITGSIQPKNGKYYAVLNLYDHTGKRRPKWVSTGYTVKGNKKKAQEVLNELTRRYSAQLPPSK” the “soluble fraction (log2)” value was -1.05.
In the case of “HMITLPDFVGKDVETVKAWAKENGITLIVNKVEDSAKKDTVISQTPTTYDYSKIMKGSSFTVNVAKE”, the “soluble fraction (log2)” value was 0.206.
With “HMITNLEPFKDFVRGFSGLHLEGVGQEKLAAALDERIRKTGSANERDYLQLIMEDVAERLKLINILT” the “soluble fraction (log2)” value was -0.627.
With “HMITPAARLRALKIRLSVDEVAQIVQRLVNGETVYQIGKPDTGGHAKATVGKINALRLAGQLHFL” the “soluble fraction (log2)” value was -1.45.
In the case of “HMITTLLVENLQDVGMRLDHYLVYNLIKYSRSHIQSFIRSGDIRVNGKKVKTGYSLELKDLIHIEMP”, the “soluble fraction (log2)” value was -3.66.
With “HMITVPKVINMSETQARQTLDALGLNVTLSATQVMNDKIPYGYVAAQSYSAGKEVPAGTTIELTMSIGL” the “soluble fraction (log2)” value was -2.03.
For “HMIVDYPSFVGKTKQELEKWAKENNIIIRYRQLSVTASDKVKAQLPATTTYKRIMKGSSIEVELEL”, the “soluble fraction (log2)” value was -2.44.
For “HMIVIMKAKAEEEDVNRVIDTIQSLGLRTQLNLGAERMVVAVIGDISKIGEDNFFRIRAMKGVENTVFVSK”, the “soluble fraction (log2)” value was -2.12.
In the case of “HMIVMPELRGKDLKEAERLLSSHNLRYELVDSVYDKSLAPGVVVEMVPQSGNTVKPGRIIFLSINA”, the “soluble fraction (log2)” value was -0.982.
With “HMIVNTTRAPYLLGETEQDAMRLARQAGLVPEIVRQSSAEPAGTVILQSHDFDYRMRRGSVILITVSTGPL” the “soluble fraction (log2)” value was -2.84.
